The values below come from patent US20070178460A1 (ECOLE POLYTECHNIQUE FEDERALE DE LAUSANNE, published 2007).

Experiment in all cases: split-Trp growth complementation in trp1 yeast EGY48
One experiment addresses T1, Sec63p-^44Ctrp (Saccharomyces cerevisiae, UniProt P14906 1-663).
T1 construct: whole, on cells; Expressed in yeast EGY48 from pRS316CUP1 under the PCUP1-promoter; also called Sec63p-Ctrp; SEC63-^44Ctrp; not shown: HA tag at the C terminus of Trp1p
T1 sequence: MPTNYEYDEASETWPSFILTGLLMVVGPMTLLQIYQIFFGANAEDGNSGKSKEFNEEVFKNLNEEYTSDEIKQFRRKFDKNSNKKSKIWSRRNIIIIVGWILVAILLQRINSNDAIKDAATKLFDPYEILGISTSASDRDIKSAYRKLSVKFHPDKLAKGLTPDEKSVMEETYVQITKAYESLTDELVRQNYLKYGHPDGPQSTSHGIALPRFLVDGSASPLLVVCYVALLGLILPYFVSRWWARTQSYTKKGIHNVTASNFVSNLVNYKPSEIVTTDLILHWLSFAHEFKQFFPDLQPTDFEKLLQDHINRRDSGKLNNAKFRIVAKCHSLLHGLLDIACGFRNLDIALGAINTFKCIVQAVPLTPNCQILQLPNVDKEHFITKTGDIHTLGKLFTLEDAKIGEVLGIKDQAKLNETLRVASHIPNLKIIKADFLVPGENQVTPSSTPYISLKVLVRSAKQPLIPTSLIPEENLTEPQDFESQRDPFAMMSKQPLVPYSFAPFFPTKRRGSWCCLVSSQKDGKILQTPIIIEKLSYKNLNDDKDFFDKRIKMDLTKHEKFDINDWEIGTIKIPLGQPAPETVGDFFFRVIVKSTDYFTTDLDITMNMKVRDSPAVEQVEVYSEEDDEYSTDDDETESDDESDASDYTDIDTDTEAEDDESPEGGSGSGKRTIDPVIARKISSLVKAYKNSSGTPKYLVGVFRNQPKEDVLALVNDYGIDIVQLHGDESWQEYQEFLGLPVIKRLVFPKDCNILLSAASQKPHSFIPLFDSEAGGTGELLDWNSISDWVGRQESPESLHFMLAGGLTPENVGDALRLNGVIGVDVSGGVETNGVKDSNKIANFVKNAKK
From the text:
(§1) To monitor the interaction between Sec62p and Sec63p, trp1 yeast strains expressing pairs of matching Nₜᵣₚ-Sec62p and Sec63p-Cₜᵣₚ fusion proteins were spotted on selective plates lacking tryptophan (FIG. 5). […] To verify that the observed complementation of tryptophan auxotrophy is a result of the interaction between the Sec62p and Sec63p moieties of the fusion proteins, we fused the C-terminal fragments of split-Trp⁴⁴ and split-Trp¹⁸⁷ to the cytoplasmic site of Ste14p (FIG. 4B). Ste14p is a membrane protein of the ER that is known to interact with neither Sec62p nor Sec63p (FIG. 4B) (cf. Wittke, S., Lewke, N., Muller, S., and Johnsson, N. (1999), Mol Biol Cell 10, 2519-2530). No growth on plates lacking tryptophan was observed when matching pairs of Sec62p and Ste14p fusion proteins were co-expressed at 23° C. or 30° C. for 10 days (FIG. 5). The cellular amount of Ste14p-⁴⁴Cₜᵣₚ is roughly 2-3 fold lower than the amount of Sec63p-⁴⁴Cₜᵣₚ as determined by western blotting (data not shown). Since this relatively small effect cannot account for the clear growth difference between the strains expressing either ⁴⁴Nₜᵣₚ-Sec62p/Sec63p-⁴⁴Cₜᵣₚ or ⁴⁴Nₜᵣₚ-Sec62p/Ste14p-⁴⁴Cₜᵣₚ, we conclude that the ⁴⁴Nₜᵣₚ-Sec62p/Sec63p-⁴⁴Cₜᵣₚ interaction signal is specific.

The target of a further experiment is T2, Ste14p-^44Ctrp (Saccharomyces cerevisiae, UniProt P32584 1-239).
T2 construct: whole, on cells; Control fusion; Ctrp fused to the cytoplasmic site of Ste14p; also called Ste14p-Ctrp; STE14-^44Ctrp; not shown: HA tag at the C terminus of Trp1p
T2 sequence: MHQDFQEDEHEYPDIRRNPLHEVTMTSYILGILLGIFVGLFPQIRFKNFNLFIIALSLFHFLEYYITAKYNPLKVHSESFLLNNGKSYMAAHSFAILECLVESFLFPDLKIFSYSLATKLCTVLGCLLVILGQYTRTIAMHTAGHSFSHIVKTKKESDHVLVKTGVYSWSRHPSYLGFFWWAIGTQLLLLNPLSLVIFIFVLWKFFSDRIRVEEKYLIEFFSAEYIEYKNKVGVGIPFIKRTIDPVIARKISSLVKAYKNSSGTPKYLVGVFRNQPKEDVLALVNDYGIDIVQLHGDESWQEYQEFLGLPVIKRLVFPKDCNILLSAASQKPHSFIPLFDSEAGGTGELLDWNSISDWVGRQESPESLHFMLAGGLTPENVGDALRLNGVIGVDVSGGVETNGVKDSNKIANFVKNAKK
Source text: as §1

Another experiment deals with T3, ^187Ntrp-Sec62p (Saccharomyces cerevisiae, UniProt P21825 2-274).
T3 construct: whole, on cells; Expressed in yeast EGY48 from pRS315CUP1 under the PCUP1-promoter; not shown: 6x His tag at the N-terminus of Ntrp
T3 sequence: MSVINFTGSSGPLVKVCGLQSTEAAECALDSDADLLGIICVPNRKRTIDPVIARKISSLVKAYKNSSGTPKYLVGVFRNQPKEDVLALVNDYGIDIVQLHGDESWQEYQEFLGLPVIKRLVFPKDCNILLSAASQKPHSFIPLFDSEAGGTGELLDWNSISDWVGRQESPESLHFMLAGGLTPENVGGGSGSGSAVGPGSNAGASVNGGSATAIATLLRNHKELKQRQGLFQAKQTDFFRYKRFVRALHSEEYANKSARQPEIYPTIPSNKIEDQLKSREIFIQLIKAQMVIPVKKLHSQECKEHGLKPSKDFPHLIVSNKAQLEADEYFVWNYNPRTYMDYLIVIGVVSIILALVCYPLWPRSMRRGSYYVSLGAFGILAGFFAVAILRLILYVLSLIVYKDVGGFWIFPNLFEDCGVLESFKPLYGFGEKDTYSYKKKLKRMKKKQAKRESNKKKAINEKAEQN
Source text: as §1

B1: ^44Ntrp-Sec62p (other, Saccharomyces cerevisiae)
chain: MSVINFTCSSGPLVKVCGLQSTEAAECALDSDADLLGIICVPNRGGSGSGSAVGPGSNAGASVNGGSATAIATLLRNHKELKQRQGLFQAKQTDFFRYKRFVRALHSEEYANKSARQPEIYPTIPSNKIEDQLKSREIFIQLIKAQMVIPVKKLHSQECKEHGLKPSKDFPHLIVSNKAQLEADEYFVWNYNPRTYMDYLIVIGVVSIILALVCYPLWPRSMRRGSYYVSLGAFGILAGFFAVAILRLILYVLSLIVYKDVGGFWIFPNLFEDCGVLESFKPLYGFGEKDTYSYKKKLKRMKKKQAKRESNKKKAINEKAEQN
notes: whole, on cells; Expressed in yeast EGY48 from pRS315CUP1 under the PCUP1-promoter; Ntrp at the N terminus of Sec62p; not shown: 6x His tag at the N-terminus of Ntrp
In the case of B1, the binding result with Sec63p-^44Ctrp is “binds”; in the experiment with Ste14p-^44Ctrp, “no binding”.

B2: Ste14p-^187Ctrp (other, Saccharomyces cerevisiae)
chain: MHQDFQEDEHEYPDIRRNPLHEVTMTSYILGILLGIFVGLFPQIRFKNFNLFIIALSLFHFLEYYITAKYNPLKVHSESFLLNNGKSYMAAHSFAILECLVESFLFPDLKIFSYSLATKLCTVLGCLLVILGQYTRTIAMHTAGHSFSHIVKTKKESDHVLVKTGVYSWSRHPSYLGFFWWAIGTQLLLLNPLSLVIFIFVLWKFFSDRIRVEEKYLIEFFSAEYIEYKNKVGVGIPFIDALRLNGVIGVDVSGGVETNGVKDSNKIANFVKNAKK
notes: whole, on cells; Control fusion; Ctrp fused to the cytoplasmic site of Ste14p; also called Ste14p-Ctrp; not shown: HA tag at the C terminus of Trp1p
Take B2: the binding result with ^187Ntrp-Sec62p is listed as “no binding”.
